According to patent US20170066831A1 (Janssen / Centocor, published 2017):
Like-named read-outs stand apart in the source and are kept apart here.

T1: human ST2L, full length, on cells (human, UniProt Q01638 19-556)
T1 sequence: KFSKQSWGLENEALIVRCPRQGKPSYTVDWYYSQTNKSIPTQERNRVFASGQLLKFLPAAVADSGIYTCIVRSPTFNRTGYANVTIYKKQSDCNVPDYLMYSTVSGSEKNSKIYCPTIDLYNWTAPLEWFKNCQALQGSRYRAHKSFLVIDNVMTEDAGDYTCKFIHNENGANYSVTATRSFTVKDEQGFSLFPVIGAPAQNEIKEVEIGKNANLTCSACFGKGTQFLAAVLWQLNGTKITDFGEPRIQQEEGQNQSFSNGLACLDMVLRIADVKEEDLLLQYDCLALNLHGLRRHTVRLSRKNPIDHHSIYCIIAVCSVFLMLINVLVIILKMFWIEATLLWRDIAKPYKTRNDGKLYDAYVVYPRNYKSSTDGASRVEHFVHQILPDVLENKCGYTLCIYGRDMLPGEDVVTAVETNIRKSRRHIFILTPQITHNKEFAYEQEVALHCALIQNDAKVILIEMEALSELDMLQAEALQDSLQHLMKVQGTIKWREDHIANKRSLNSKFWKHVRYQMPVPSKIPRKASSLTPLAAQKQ

T2: human ST2L extracellular domain with C-terminal His6 tag (human, UniProt Q01638 19-328)
T2 construct: also called huST2L-ECD; ST2L-ECD
T2 sequence: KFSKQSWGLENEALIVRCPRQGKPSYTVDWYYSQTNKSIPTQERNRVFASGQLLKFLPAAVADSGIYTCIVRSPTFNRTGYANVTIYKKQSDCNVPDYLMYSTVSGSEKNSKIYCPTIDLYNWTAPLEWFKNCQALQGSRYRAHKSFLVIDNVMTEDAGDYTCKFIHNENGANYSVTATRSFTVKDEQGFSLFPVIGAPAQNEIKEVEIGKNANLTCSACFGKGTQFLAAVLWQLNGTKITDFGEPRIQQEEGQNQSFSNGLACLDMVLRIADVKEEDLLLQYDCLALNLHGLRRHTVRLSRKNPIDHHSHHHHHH

T3: cynomolgus (Macaca fascicularis) ST2L extracellular domain with C-terminal His6 tag (Macaca fascicularis (cynomolgus), UniProt Q01638 19-321 (human entry))
T3 construct: also called cyno ST2L-ECD; cynoST2L-ECD
T3 chain: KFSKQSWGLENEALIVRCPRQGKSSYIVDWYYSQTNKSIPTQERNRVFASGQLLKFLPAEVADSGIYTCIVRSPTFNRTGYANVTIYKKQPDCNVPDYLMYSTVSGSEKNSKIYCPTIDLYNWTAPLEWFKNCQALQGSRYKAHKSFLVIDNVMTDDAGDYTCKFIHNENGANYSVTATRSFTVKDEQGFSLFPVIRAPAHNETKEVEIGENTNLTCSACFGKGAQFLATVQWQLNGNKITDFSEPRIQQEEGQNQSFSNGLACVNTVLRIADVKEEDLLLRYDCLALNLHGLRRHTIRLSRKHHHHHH


Experiments:
[1] = molecular target: T1, human ST2L, full length, on cells; assay: cell-based or functional assay
[2] = molecular target: T2, human ST2L extracellular domain with …; assay: SPR, mAb captured, ST2L-ECD in solution
[3] = molecular target: T3, cynomolgus (Macaca fascicularis) ST2L …; assay: SPR, mAb captured, ST2L-ECD in solution
[4] = molecular target: T2, human ST2L extracellular domain with …; assay: RLB ELISA: biotinylated IL-33 on coated huST2L-ECD, antibody titrated
Method: 96-well plate was coated with 50 μl of 4 μg/ml human ST2L-ECD (amino acids 19-328 of SEQ ID NO: 1) or 2 μg/ml cyno ST2L-ECD (amino acids 19-321 of SEQ ID NO: 2) having C-terminal His₆ tag in bicarbonate buffer at 4° C. for 16 hrs. All subsequent steps were performed at room temperature. Plate was blocked with 200 μl blocking buffer, and was washed 3 times with 300 μl of wash buffer containing PBS+0.05% Tween. 30 μl of various dilutions of anti-ST2L mAbs were added to the wells and incubated for 1 hour. For human receptor-ligand binding assay 20 μl of biotinylated human IL-33 (residues 112-270 of SEQ ID NO: 3) was added at 100 ng/ml final concentration and incubated for 30 minutes. For cyno receptor-ligand binding assay 20 μl of biotinylated cyno IL-33 (residues 112-269 of SEQ ID NO: 4) was added at 200 ng/ml final concentration and incubated for 30 minutes. The plate was washed 3 times with 300 μl of wash buffer. 50 μl of 0.2 μg/ml Streptavidin-HRP (Jackson Immunoresearch) was added and incubated for 30 min. The plate was washed 3 times with 300 μl of wash buffer containing PBS+0.05% Tween. 50 μl of TMB substrate (EMD Biosciences) was added to each well. Reaction was stopped by the addition of 100 μl of 0.2N Sulfuric Acid. OD450 were measured using Envision plate reader (Perkin Elmer).

[5] = molecular target: T2, human ST2L extracellular domain with …; assay: SPR, mAb captured, ST2L-ECD in solution; remark: listed apart in the source
[6] = molecular target: T3, cynomolgus (Macaca fascicularis) ST2L …; assay: SPR, mAb captured, ST2L-ECD in solution

| RGA IC50 [1] | Kd [2] | koff [2] | kon [2] | Kd [3] | koff [3] | kon [3] | IC50 [4] | Kd [5] | koff [5] | kon [5] | Kd [6] | koff [6] | kon [6] | Binder |
| --- | --- | --- | --- | --- | --- | --- | --- | --- | --- | --- | --- | --- | --- | --- |
| 2.1 µg/mL | 0.019 nM | 0.000227 s⁻¹ | 1.21e+07 M⁻¹ s⁻¹ | 0.009 nM | 0.000528 s⁻¹ | 5.7e+07 M⁻¹ s⁻¹ | 0.3 µg/mL |  |  |  |  |  |  | STLM210 (antibody, V domains shown, frameworks VH3-23 / Vk-L6) VH: EVQLLESGGGLVQPGGSLRLSCAASGFTFSDDAMIWVRQAPGKGLEWVSYIGGNGGTTYYADSVKGRFTISRDNSKNTLYLQMNSLRAEDTAVYYCARDPWSTEGSFFVLDYWGQGTLVTVSS VL: EIVLTQSPATLSLSPGERATLSCRASQSVDDDLAWYQQKPGQAPRLLIYDASNRATGIPARFSGSGSGTDFTLTISSLEPEDFAVYYCQQYNDAITFGQGTKVEIK |
| 4.32 µg/mL | 0.032 nM | 0.000398 s⁻¹ | 1.24e+07 M⁻¹ s⁻¹ | 0.024 nM | 0.000346 s⁻¹ | 1.43e+07 M⁻¹ s⁻¹ | 0.33 µg/mL |  |  |  |  |  |  | STLM212 (antibody, V domains shown, frameworks VH3-23 / Vk-L6) VH: EVQLLESGGGLVQPGGSLRLSCAASGFTFSVYDMIWVRQAPGKGLEWVSTIRGEGGGTYYADSVKGRFTISRDNSKNTLYLQMNSLRAEDTAVYYCARDPWSTEGSFFVLDYWGQGTLVTVSS VL: EIVLTQSPATLSLSPGERATLSCRASQSVDDDLAWYQQKPGQAPRLLIYDASNRATGIPARFSGSGSGTDFTLTISSLEPEDFAVYYCQQYNDAITFGQGTKVEIK |
|  |  |  |  |  |  |  |  | 0.18 nM | 8.7e-05 s⁻¹ | 483000 M⁻¹ s⁻¹ | 44.8 nM | 0.0032 s⁻¹ | 71400 M⁻¹ s⁻¹ | C2519 (antibody, V domains shown, Mouse hybridoma antibody; also called C2519A) VH: EFQLQQSGPELVKPGASVKISCKASGYSFTDYNMNWVKQSHGKSLEWIGNINPYYGSTTYNQKFKGKATLTVDKSSNTAYMHLNSLTSEDSAVYYCAREGDTYLAWFAYWGQGTLVTVSA VL: DVLMTQTPLSLPVSLGDQASISCRSSQSIVYSNGNTYLEWYLQKPGQSPKLLIYKVSNRFSGVPDRFSGSGSGTDFTLKISRVEAEDLGVYYCFQGSHVPPTFGGGTKLEIK |
| 0.25 µg/mL | 0.09 nM | 0.00193 s⁻¹ | 2.16e+07 M⁻¹ s⁻¹ | 0.301 nM | 0.0301 s⁻¹ | 1e+08 M⁻¹ s⁻¹ | 0.26 µg/mL |  |  |  |  |  |  | STLM226 (antibody, V domains shown, VH STLH201 + VL STLL280) VH: EVQLVQSGAEVKKPGATVKISCKVSAFNIKDDYMHWVQQAPGKGLEWMGRIDPAIGNTEYAEKFQGRVTITADTSTDTAYMELSSLRSEDTAVYYCATGDFYAMAYWGQGTLVTVSS VL: DIQMTQSPSSLSASVGDRVTITCITNTDIDDVIHWYQQKPGKAPKLLIYEGNTLRPGVPSRFSGSGSGTDFTLTISSLQPEDFATYYCLQSDNLLTFGQGTKLEIK |
| 0.23 µg/mL | 0.064 nM | 0.0017 s⁻¹ | 2.66e+07 M⁻¹ s⁻¹ | 0.294 nM | 0.0294 s⁻¹ | 1e+08 M⁻¹ s⁻¹ | 0.17 µg/mL |  |  |  |  |  |  | STLM227 (antibody, V domains shown, VH STLH201 + VL STLL277) VH: EVQLVQSGAEVKKPGATVKISCKVSAFNIKDDYMHWVQQAPGKGLEWMGRIDPAIGNTEYAEKFQGRVTITADTSTDTAYMELSSLRSEDTAVYYCATGDFYAMAYWGQGTLVTVSS VL: DIQLTQSPSFLSASVGDRVTITCITNTDIDDVIHWYQQKPGKAPKLLIYEGNTLRPGVPSRFSGSGSGTEFTLTISSLQPEDFATYYCLQSDNMLTFGQGTKLEIK |
| 1.1 µg/mL | 0.046 nM | 0.000913 s⁻¹ | 1.97e+07 M⁻¹ s⁻¹ | 0.172 nM | 0.0143 s⁻¹ | 8.27e+07 M⁻¹ s⁻¹ | 0.26 µg/mL |  |  |  |  |  |  | STLM231 (antibody, V domains shown, VH STLH201 + VL STLL273; also called S1LM231) VH: EVQLVQSGAEVKKPGATVKISCKVSAFNIKDDYMHWVQQAPGKGLEWMGRIDPAIGNTEYAEKFQGRVTITADTSTDTAYMELSSLRSEDTAVYYCATGDFYAMAYWGQGTLVTVSS VL: DIQMTQSPSSLSASVGDRVTITCITNTDIDDVIHWYQQKPGKVPKLLIYEGNTLRPGVPSRFSGSGSGTDFTLTISSLQPEDVATYYCLQSDNMLTFGQGTKLEIK |
| 0.32 µg/mL | 0.035 nM | 0.000445 s⁻¹ | 1.29e+07 M⁻¹ s⁻¹ | 0.085 nM | 0.0085 s⁻¹ | 1e+08 M⁻¹ s⁻¹ | 0.29 µg/mL |  |  |  |  |  |  | STLM229 (antibody, V domains shown, VH STLH201 + VL STLL275) VH: EVQLVQSGAEVKKPGATVKISCKVSAFNIKDDYMHWVQQAPGKGLEWMGRIDPAIGNTEYAEKFQGRVTITADTSTDTAYMELSSLRSEDTAVYYCATGDFYAMAYWGQGTLVTVSS VL: DIQMTQSPSSVSASVGDRVTITCITNTDIDDVIHWYQQKPGKAPKLLIYEGNTLRPGVPSRFSGSGSGTDFTLTISSLQPEDFATYYCLQSDNMLTFGQGTKLEIK |
| 0.28 µg/mL | 0.052 nM | 0.00104 s⁻¹ | 2.01e+07 M⁻¹ s⁻¹ | 0.155 nM | 0.0155 s⁻¹ | 1e+08 M⁻¹ s⁻¹ | 0.2 µg/mL |  |  |  |  |  |  | STLM228 (antibody, V domains shown, VH STLH201 + VL STLL276) VH: EVQLVQSGAEVKKPGATVKISCKVSAFNIKDDYMHWVQQAPGKGLEWMGRIDPAIGNTEYAEKFQGRVTITADTSTDTAYMELSSLRSEDTAVYYCATGDFYAMAYWGQGTLVTVSS VL: DIQMTQSPSTLSASVGDRVTITCITNTDIDDVIHWYQQKPGKAPKLLIYEGNTLRPGVPSRFSGSGSGTEFTLTISSLQPDDFATYYCLQSDNMLTFGQGTKLEIK |
| 0.15 µg/mL | 0.025 nM | 0.000449 s⁻¹ | 1.78e+07 M⁻¹ s⁻¹ | 0.08 nM | 0.00797 s⁻¹ | 1e+08 M⁻¹ s⁻¹ | 0.31 µg/mL |  |  |  |  |  |  | STLM232 (antibody, V domains shown, VH STLH201 + VL STLL272) VH: EVQLVQSGAEVKKPGATVKISCKVSAFNIKDDYMHWVQQAPGKGLEWMGRIDPAIGNTEYAEKFQGRVTITADTSTDTAYMELSSLRSEDTAVYYCATGDFYAMAYWGQGTLVTVSS VL: DIQMTQSPSSLSASVGDRVTITCITNTDIDDVIHWYQQKPGKAPKLLIYEGNTLRPGVPSRFSGSGSGTDFTFTISSLQPEDIATYYCLQSDNMLTFGQGTKLEIK |
| 0.15 µg/mL | 0.038 nM | 0.000426 s⁻¹ | 1.11e+07 M⁻¹ s⁻¹ | 0.144 nM | 0.0073 s⁻¹ | 5.06e+07 M⁻¹ s⁻¹ | 0.28 µg/mL |  |  |  |  |  |  | STLM230 (antibody, V domains shown, VH STLH201 + VL STLL274) VH: EVQLVQSGAEVKKPGATVKISCKVSAFNIKDDYMHWVQQAPGKGLEWMGRIDPAIGNTEYAEKFQGRVTITADTSTDTAYMELSSLRSEDTAVYYCATGDFYAMAYWGQGTLVTVSS VL: DIQMTQSPSSLSASVGDRVTITCITNTDIDDVIHWYQQKPGKAPKLLIYEGNTLRPGVPSRFSGSGSGTDFTLTISSLQPEDFATYYCLQSDNMLTFGQGTKLEIK |
